Patent publication US5959145A, “Fatty acid analog enzyme substrates” (priority 1993, dated 1999)

T1: yeast NMT (Saccharomyces cerevisiae, UniProt P14743)
T1 construct: 11,000-fold purified preparation of yeast NMT; endogenous in cells; host or cells: yeast (enzyme purified from yeast, 11,000-fold)
T1 sequence (P14743 1-455): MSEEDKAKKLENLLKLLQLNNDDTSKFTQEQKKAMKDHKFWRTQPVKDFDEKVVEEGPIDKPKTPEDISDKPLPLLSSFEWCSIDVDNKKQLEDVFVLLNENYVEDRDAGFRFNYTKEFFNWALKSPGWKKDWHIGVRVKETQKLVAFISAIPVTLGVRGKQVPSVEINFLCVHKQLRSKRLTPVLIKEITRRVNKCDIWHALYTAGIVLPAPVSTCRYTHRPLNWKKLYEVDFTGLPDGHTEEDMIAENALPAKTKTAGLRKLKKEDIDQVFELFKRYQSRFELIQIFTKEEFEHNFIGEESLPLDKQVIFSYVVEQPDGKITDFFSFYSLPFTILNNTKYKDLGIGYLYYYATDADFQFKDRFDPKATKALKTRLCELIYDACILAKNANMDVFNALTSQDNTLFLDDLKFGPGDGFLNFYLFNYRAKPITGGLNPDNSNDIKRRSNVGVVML


Columns and labels:
yeast NMT = target: T1, yeast NMT; experiment: kinetic characterisation of fatty acid analogs as yeast NMT substrates; format: biochemical
Source text: (§1) Similar results were obtained using an 11,000-fold purified preparation of yeast NMT [Towler et al., Proc. Natl. Acad. Sci. USA 84, 2708-2712 (1987)].
(§2) Other illustrative examples of the oxy- and thio-substituted fatty acid analog substrate compounds of the invention were synthesized in Examples 6 to 14 and tested in Example 15 as substrates for the yeast NMT.
(§3) For these Examples, each analog synthesized is characterized by ^1 H and ^13 C NMR as well as mass spectroscopy. The analogs are then characterized kinetically as NMT substrates. Briefly, fatty acid analogs are converted to their CoA esters with Pseudomonas CoA ligase and incubated with the iodinated peptide GNAAS[^125 I]YRR and a source of NMT. […] The radiolabelled peptide is then used at concentrations which will lead to 50% enzyme saturation (i.e., at its Km) for the determination of fatty acid analog kinetic characteristics. Representative analogs with sulfur or oxygen in the backbone of the fatty acid chain serve as good substrates for NMT in vitro and will compete for incorporation of ^3 H labelled myri-state into yeast proteins in vivo. In addition, these analogs differ markedly in hydrophobicity from myri-state as measured both by C18 reverse phase HPLC elution profiles and by 2-octanol/water partition coefficients. The analog CH3 O(CH2)11 COOH, for example, partitions into water 20 fold better than myristate. It is believed that these analogs will be incorporated into mammalian acylproteins in vivo and that their incorporation into these proteins will drastically alter protein processing or targeting. It is further believed that the incorporation of fatty acid analogs of both myristate and palmitate into ester linked and phosphatidyl inositol glycan linked acylproteins will also dramatically alter their properties. Since many viral proteins and oncogenes are acylated, these compounds represent a new class of potential antiviral and antineoplastic agents.

[1] = C18 reverse phase HPLC elution of fatty acyl peptides (hydrophobicity); format: physicochemical; conditions: C18 reverse phase HPLC, acyl derivative of GNAAS[125I]YRR; Table 2
Method: The fatty acid analog acyl-peptide eluted 7 minutes earlier than the corresponding myristoyl peptide. The free peptide elutes in the void volume (3-5minutes).
This difference was evident when the HPLC elution characteristics of fatty acyl peptides were examined. The elution time of a particular acyl-peptide depends strongly on the peptide sequence as well as on the acyl chain attached to that peptide. For example, the elution times of fatty acyl derivatives of GNAAAARR are (in minutes) decanoic acid, 9; dodecanoic acid, 18; myristic acid, 24; and palmitic acid, 30. Elution times for fatty acyl derivatives of GNAAS[^125 I]YRR are 23 and 28 minutes for C12 and C14 fatty acids, respectively (FIG. 2). […] Such a change could alter the biological activity of myristoyl proteins.
as §3

[2] = 2-octanol/water partition; format: physicochemical
Method: as §3, with “It is further believed that the incorporation of fatty acid analogs of both myristate and palmitate into ester linked and phosphatidyl inositol glycan linked acylproteins will also dramatically alter their properties. Since many viral proteins and oncogenes are acylated, these compounds represent a new class of potential antiviral and antineoplastic agents.” left out

[3] = tested on: yeast myristoylprotein of Mr 20 kDa; experiment: competition for [3H]myristate incorporation into yeast acylprotein in vivo; format: cell-based; conditions: Saccharomyces cerevisiae, 0.75 h; 100 μM unlabeled fatty acid or analog, 5 μM [3H]myristate, vs control cells; read-out: reduction in incorporation of [3H]myristate into yeast myristoylprotein of Mr 20 kDa
Method: (§4) Saccharomyces cerevisiae strain BJ405 [MATα, trpl, prbl, prcl, pep4-3; Hemmings et al., Proc. Natl. Acad. Sci. USA 78, 435-439 (1981)] (previously referred to as JR153) was grown to mid-log phase (OD660 nm =1.0-1.2) in YPD medium (1% yeast extract/2% Bactopeptone/2% Dextrose) at 30° C. in a rotary shaker water bath. Cells were pretreated with Cerulenin at 2 μg/ml for 15 minutes and then incubated for 20-45 minutes with unlabeled myristate, palmitate or fatty acid analog at 100 μM in the presence of either 5 μM [9,10-^3 H(N)]-myristate (22.4 Ci/mmol) or L-[^35 S]methionine (1106 Ci/mmol) at 30 μCi/ml of culture.
(§5) Cells were cooled on ice 5 minutes, pelleted at 10,000×g, then broken and extracted by the method of Towler et al., Proc. Natl. Acad. Sci. USA 83, 2812-2816 (1986). Total protein synthesis was assayed by trichloroacetic acid (TCA) precipitation. Proteins were separated by SDS-12% polyacrylamide gel electrophoresis, and [^3 H]fatty acid incorporation into cellular acyl-proteins was assayed by autoradiography followed by laser densitometry.

[4] = growth, toxicity and total protein synthesis in yeast cells; format: cell-based; conditions: s. cerevisiae bj405, vs control cells not exposed to exogenous fatty acid, read-out: reduction in total protein synthesis ([35S]methionine into TCA precipitable protein)
Method: as §4, §5

[5] = tested on: Saccharomyces cerevisiae strain BJ405; experiment: as above; format: cell-based
Method: as §4, §5

[6] = substrate: C#CCOCCCCCCCCCC(=O)O; experiment: kinetic characterisation of fatty acid analogs as yeast NMT substrates; format: biochemical; conditions: other: peptide GNAAS[125I]YRR varied, fatty acid analog at 15 μM
Source text: as §1, §2, §3

[7] = substrate: CCCCCCCCCCCCCC(=O)O; experiment: as above; format: biochemical; conditions: other: peptide GNAAS[125I]YRR varied, fatty acid analog at 15 μM
Source text: as §1, §2, §3

[8] = substrate: CCCCCCCCOCCCCC(=O)O; experiment: as above; format: biochemical; conditions: other: peptide GNAAS[125I]YRR varied, fatty acid analog at 15 μM
Source text: as §1, §2, §3

[9] = substrate: CCCCCCCCSCCCCC(=O)O; experiment: as above; format: biochemical; conditions: other: peptide GNAAS[125I]YRR varied, fatty acid analog at 15 μM
Source text: as §1, §2, §3

[10] = substrate: CCCCOCCCCCCCCCCC(=O)O; experiment: as above; format: biochemical; conditions: other: peptide GNAAS[125I]YRR varied, fatty acid analog at 15 μM
Source text: as §1, §2, §3

[11] = substrate: CCCOCCCCCCCCCC(=O)O; experiment: as above; format: biochemical; conditions: other: peptide GNAAS[125I]YRR varied, fatty acid analog at 15 μM
Source text: as §1, §2, §3

[12] = substrate: CCCSCCCCCCCCCC(=O)O; experiment: as above; format: biochemical; conditions: other: peptide GNAAS[125I]YRR varied, fatty acid analog at 15 μM
Source text: as §1, §2, §3

[13] = substrate: CCOCCCCCCCCCCC(=O)O; experiment: as above; format: biochemical; conditions: other: peptide GNAAS[125I]YRR varied, fatty acid analog at 15 μM
Source text: as §1, §2, §3

[14] = substrate: CCSCCCCCCCCCCC(=O)O; experiment: as above; format: biochemical; conditions: other: peptide GNAAS[125I]YRR varied, fatty acid analog at 15 μM
Source text: as §1, §2, §3

[15] = substrate: COCCCCCCCCCCC(=O)O; experiment: as above; format: biochemical; conditions: other: peptide GNAAS[125I]YRR varied, fatty acid analog at 15 μM
Source text: as §1, §2, §3

| Molecule | Peptide Vm (yeast NMT; peptide GNAAS[125I]YRR varied, fatty acid analog at 15 μM, myristate control = 100%) [%] | Acyl CoA Vm (yeast NMT; radiolabelled peptide at its Km, analog varied, myristate control = 100%) | Km (yeast NMT; radiolabelled peptide at its Km, analog varied, read-out: Acyl CoA Km) [µM] | Elution Time [1] [min] | partition into water relative to myristate [2] [fold] | inhibition at 100 µM [3] [%] | inhibition at 100 µM [4] [%] | difference in growth rates versus cells treated with 100 μM myristate [5] | Km [6] [µM] | Km [7] [µM] | Km [8] [µM] | Km [9] [µM] | Km [10] [µM] | Km [11] [µM] | Km [12] [µM] | Km [13] [µM] | Km [14] [µM] | Km [15] [µM] |
| --- | --- | --- | --- | --- | --- | --- | --- | --- | --- | --- | --- | --- | --- | --- | --- | --- | --- | --- |
| COCCCCCCCCCCCC(=O)O [E, 12-(Methoxy)dodecanoic acid] | 177 | ~ 110% | ~2 | 12 to 13 | 20 | 35 to 60 | 10 to 15 | No difference | – | – | – | – | – | – | – | – | – | – |
| yeast NMT (Saccharomyces cerevisiae S288C) (protein) MSEEDKAKKLENLLKLLQLNNDDTSKFTQEQKKAMKDHKFWRTQPVKDFDEKVVEEGPIDKPKTPEDISDKPLPLLSSFEWCSIDVDNKKQLEDVFVLLNENYVEDRDAGFRFNYTKEFFNWALKSPGWKKDWHIGVRVKETQKLVAFISAIPVTLGVRGKQVPSVEINFLCVHKQLRSKRLTPVLIKEITRRVNKCDIWHALYTAGIVLPAPVSTCRYTHRPLNWKKLYEVDFTGLPDGHTEEDMIAENALPAKTKTAGLRKLKKEDIDQVFELFKRYQSRFELIQIFTKEEFEHNFIGEESLPLDKQVIFSYVVEQPDGKITDFFSFYSLPFTILNNTKYKDLGIGYLYYYATDADFQFKDRFDPKATKALKTRLCELIYDACILAKNANMDVFNALTSQDNTLFLDDLKFGPGDGFLNFYLFNYRAKPITGGLNPDNSNDIKRRSNVGVVML | – | – | – | – | – | – | – | – | 28 | 10 | 31 | 11.5 | 42 | 34 | 47 | 14.8 | 19 | 47.3 |
